Test [1] addresses T1, biotinylated synthetic VNTR peptide of MUC1 (APDTRPAPGSTAPPAC-biotin) (human).
T1 construct: also called human MUC1-VNTR peptide
T1 peptide: APDTRPAPGSTAPPAC-biotin
Description: Biacore, human MUC1-VNTR; ka1.

The target in test [2] is T1, biotinylated synthetic VNTR peptide of …. The test can be described thus: Biacore, human MUC1-VNTR; kd1. On the technique in general: In SPR one partner is held on a chip, and binding of the other changes the refractive index at the surface.
The target is the same in test [3]. Description: Biacore, human MUC1-VNTR peptide.
Test [4] addresses T2, fragment of human MUC1 immunodominant core peptide (APDTRPAPGSTAPPA) (human).
T2 construct: also called MUC1 peptide; human MUC1 truncated peptide
T2 peptide: APDTRPAPGSTAPPA
The test can be described thus: co-crystallisation, X-ray structure.

Where no end group is shown, it is not given here.

B1: 1993-H02 with an HT186-D11 light chain (anti-MUC1 antibody H02) (antibody, V domains shown)
VH: QMQLVQSEAELKKPGASVKVSCKASGYSFTSHFMHWVRQAPGQGLEWMGWIDPVTGGTKYAQNFQGWVTMTRDTSIRTAYLELSRLRSDDTAMYYCAREARADRGQFDKWGQGTLVTVAS
VL: QSVLTQPPSVSVAPGKTARITCGGNNIGSKSVHWYQQKPGQAPALVIYYGSNRPSGIPERFSGSNSGNTATLTISRVEAGDEADYYCQVWDSSSDWVFGGGTKLTVL
notes: One molecule is used here for both experiments
Take B1: the kon in test [1] stood at 126000 M⁻¹ s⁻¹. For the same molecule, the koff in test [2] is 0.0017 s⁻¹. The affinity in test [3], expressed as Kd, was 0.901 nM.

B2: H02-scFv, the MUC1-binding arm of Molecule 1 (scFv)
scFv: QMQLVQSEAELKKPGASVKVSCKASGYSFTSHFMHWVRQAPGQGLEWMGWIDPVTGGTKYAQNFQGWVTMTRDTSIRTAYLELSRLRSDDTAMYYCAREARADRGQFDKWGQGTLVTVASGGGGSGGGGSGGGGSQSVLTQPPSVSVAPGKTARITCGGNNIGSKSVHWYQQKPGQAPALVIYYGSNRPSGIPERFSGSNSGNTATLTISRVEAGDEADYYCQVWDSSSDWVFGGGTKLTVL
On to B2, for which the binding result in test [4] is on record as “binds”.

A word on the kon: it is the second-order rate constant of association. Higher therefore signals fast association. Usually koff stands for a measure of how fast the partners let go of each other. A lower koff goes with a long-lived complex. A word on the Kd: it is the equilibrium constant for the complex coming apart. Low values mean tighter binding, high ones weaker binding.

The values are drawn from patent US20230310629A1 (Merck KGaA, published 2023).
